Residue numbers refer to the chain shown, from its start.
B1: mAb 49: aTF_2842-G04_HC2_Y180/F404TAG; aTF_2842-G04_LC2 (antibody, IgG1, V domains shown)
VH: QVQVQESGPGLVKPPGTLSLTCAVSGFSLSYYGVSWVRQPPGKGLEWIGTIDSSGRTYYNPSLKSRVTISNDNAPNTVSLKLSSVTAADTAVYYCARDFYGWNSGALDIWGQGTLVTVSS
VL: DLQLTQSPSTLSASVGDRVTITCRASQSVYSNKYLSWYQQKPGKAPKLLIYKASTLASGVPSRFSGSGSGTEFTLTISSLQPDDFATYYCAAAYSDDSDTAFGQGTKVEIKR
modifications: non-natural amino acid (pAMF) at TAG sites Y180 and F404 (EU), * in the sequence
notes: unconjugated full-length IgG1/kappa; also called 2842-G04 HC2/LC2
B2: mAb 44: aTF_2900-F09_HC_Y180/F404TAG_SerOpt; Trastuzumab LC SerOpt (antibody, human IgG1, kappa, V domains shown)
VH: EVQLVESGGGLVQPGGSLRLSCAASGFTIHDYVIHWVRQAPGKGLEWVGYIDPSNGYTYYADSVKGRFTISADTSKNTAYLQMNSLRAEDTAVYYCARDDQSISSPLDYWGQGTLVTVSS
VL: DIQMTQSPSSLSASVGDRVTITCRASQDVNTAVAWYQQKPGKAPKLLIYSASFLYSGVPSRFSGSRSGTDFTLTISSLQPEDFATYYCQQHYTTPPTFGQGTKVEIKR
modifications: non-natural amino acid (pAMF) at TAG sites Y180 and F404 (EU), * in the sequence
notes: unconjugated full-length IgG1/kappa
B3: mAb 45: aTF_2900-H06_HC_Y180/F404TAG_SerOpt; Trastuzumab LC SerOpt (antibody, human IgG1, kappa, V domains shown)
VH: B2 VH with H30A, D31A, V33I, I103F, L107F
VL: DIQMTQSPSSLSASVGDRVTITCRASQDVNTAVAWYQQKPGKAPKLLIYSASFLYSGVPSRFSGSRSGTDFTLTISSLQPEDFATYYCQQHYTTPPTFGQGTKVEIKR
modifications: non-natural amino acid (pAMF) at TAG sites Y180 and F404 (EU), * in the sequence
notes: as for B2
B4: mAb 42: aTF_2900-C11_HC_Y180/F404TAG_SerOpt; Trastuzumab LC SerOpt (antibody, human IgG1, kappa, V domains shown)
VH: B2 VH with H30S, D31Q, V33W, S54Y, D100Y, Q101G, I103W, S104R, S105I, P106R
VL: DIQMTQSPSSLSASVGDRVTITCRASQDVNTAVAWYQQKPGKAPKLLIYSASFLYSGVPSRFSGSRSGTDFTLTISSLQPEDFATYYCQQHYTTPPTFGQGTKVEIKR
modifications: non-natural amino acid (pAMF) at TAG sites Y180 and F404 (EU), * in the sequence
notes: as for B2
B5: mAb 43: aTF_2900-F06_HC_Y180/F404TAG_SerOpt; Trastuzumab LC SerOpt (antibody, human IgG1, kappa, V domains shown)
VH: B2 VH with H30S, D31I, V33T, F68L, D100P, L107F
VL: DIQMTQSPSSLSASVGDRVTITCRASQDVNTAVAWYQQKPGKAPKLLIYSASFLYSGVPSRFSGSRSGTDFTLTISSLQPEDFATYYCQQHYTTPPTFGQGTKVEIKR
modifications: non-natural amino acid (pAMF) at TAG sites Y180 and F404 (EU), * in the sequence
notes: as for B2
B6: mAb 47: aTF_2842-B01_HC3_Y180/F404TAG; aTF_2842-B01_LC1 (antibody, IgG1, V domains shown)
VH: EVQLVESGGGLVQPGGSLRLSCAASGFSISSYDMSWVRQAPGKGLEWIGIIGSNGRTYYPDSVKGRFTISRDNSKNTVTLQMNSLRAEDTAVYYCARGLYDGTGNIWGQGTLVTVSS
VL: DLQMTQSPSSLSASVGDRVTITCRASQSVYGNNWLSWYQQKPGKAPKLLIYGASKLASGVPSRFSGSGSGTQFTLTISSLQPEDFATYYCQGTYYSGDWYFAFGQGTKVEIKR
modifications: non-natural amino acid (pAMF) at TAG sites Y180 and F404 (EU), * in the sequence
notes: unconjugated full-length IgG1/kappa; also called 2842-B01 HC3/LC1
B7: mAb 48: aTF_2842-B01_HC1_Y180/F404TAG; aTF_2842-B01_LC3 (antibody, IgG1, V domains shown)
VH: B6 VH with E1Q, L4V, Q13K, V37I, P60A, D72N, N73T, S74N, K75E, T79Y
VL: B6 VL with L2I, R24Q, Q72D, Q105G
modifications: non-natural amino acid (pAMF) at TAG sites Y180 and F404 (EU), * in the sequence
notes: unconjugated full-length IgG1/kappa; also called 2842-B01 HC1/LC3
B8: SRP2799-B03 (antibody, IgG1, V domains shown)
VH: EVQLVESGGGLVQPGGSLRLSCAASGFNISDYWIHWVRQAPGKGLEWVGFIDPYNGYTNYADSVKGRFTISADTSKNTAYLQMNSLRAEDTAVYYCARGYGSWPDYLDYWGQGTLVTVSS
VL: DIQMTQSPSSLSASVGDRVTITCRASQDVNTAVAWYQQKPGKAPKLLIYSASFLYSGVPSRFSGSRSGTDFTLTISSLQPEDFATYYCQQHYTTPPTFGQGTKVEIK
notes: also called SRP2799-B03 (parent)
B9: SRP2799-B06 (antibody, IgG1, V domains shown)
VH: B2 VH with T28N, H30S, V33N, I103V, L107F
VL: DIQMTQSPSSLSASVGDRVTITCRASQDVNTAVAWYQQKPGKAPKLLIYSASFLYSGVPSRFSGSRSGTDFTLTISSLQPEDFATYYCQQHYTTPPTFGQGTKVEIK
notes: also called SRP2799-B06 (parent)
B10: SRP2799-A05 (antibody, IgG1, V domains shown)
VH: EVQLVESGGGLVQPGGSLRLSCAASGFNISSYWIHWVRQAPGKGLEWVGYIDPYSGSTYYADSVKGRFTISADTSKNTAYLQMNSLRAEDTAVYYCARSDYYYVDEYMDYWGQGTLVTVSS
VL: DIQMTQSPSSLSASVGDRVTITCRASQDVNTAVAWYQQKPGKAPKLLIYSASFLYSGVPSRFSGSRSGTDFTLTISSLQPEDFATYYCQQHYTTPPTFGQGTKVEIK
notes: also called SRP2799-A05 (parent)

Target: T1, cynomolgus tissue factor on HEK293T-cynoTF cells (cynomolgus monkey, UniProt P13726 33-294 (human entry))
T1 construct: stably transfected HEK293T cells
T1 chain: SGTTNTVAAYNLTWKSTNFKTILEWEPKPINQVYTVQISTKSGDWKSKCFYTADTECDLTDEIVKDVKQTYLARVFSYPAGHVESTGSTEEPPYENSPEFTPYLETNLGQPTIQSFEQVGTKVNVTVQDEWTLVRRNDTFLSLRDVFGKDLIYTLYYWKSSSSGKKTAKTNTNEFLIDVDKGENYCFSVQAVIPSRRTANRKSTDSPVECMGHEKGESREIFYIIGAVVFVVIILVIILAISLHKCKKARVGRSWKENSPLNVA
Test: flow cytometry on HEK293T-cynoTF cells, one-site fit of MFI
Source text: (§1) HEK293T, BxPC3 cells (TF positive) and NCI-H1703 (TF negative) cells were obtained from ATCC (American Type Culture Collection) and maintained in DMEM: F12 (1:1), high glucose (Corning) supplemented with 10% heat-inactivated fetal bovine serum (ThermoScientific), 1× Penicillin/Streptomycin (Corning) and 2 mmol glutamax (Thermo Fisher Scientific). To generate cells that stably expressing human tissue factor (HEK293T-humanTF) or cynomolgus tissue factor (HEK293T-cynoTF), HEK293T cells were transfected with plasmid vectors that contain the corresponding protein sequence and stable clones were selected with puromycin.
(§2) For a fluorescence-activated cell sorting (FACS) cell-binding assay, cells were collected by Accutase and counted by the Vi-CELL Cell Viability Analyzersharvested and, then re-suspended in FACS buffer (DPBS buffer supplemented with 1% bovine serum albumin). A total of 200,000 cells in 100 μL were incubated on ice with 100 μL of anti-TF antibodies in each well of a 96-well plate. Cells were washed twice with ice-cold FACS buffer and then incubated on ice for 60 mins with 5 μg/mL Alexa 647-labeled donkey anti-human Fc antibody (Jackson ImmunoResearch). Unstained cells and cells stained with secondary antibody alone were used as controls. Cells were washed twice with FACS buffer and analyzed using a BD FACS Canto system. Geometric mean fluorescence intensities (MFI) were fitted using non-linear regression analysis with one site specific binding equation on GraphPad Prism (GraphPad Software; La Jolla, CA).

| Binder | Bmax (MFI) | Kd |
| --- | --- | --- |
| B1 | 465000 MFI | 5.1 nM |
| B2 | 429000 MFI | 29 nM |
| B3 | 441000 MFI | 7.5 nM |
| B4 | 426000 MFI | 16 nM |
| B5 | 419000 MFI | 21 nM |
| B6 | 501000 MFI | 3.2 nM |
| B7 | 486000 MFI | 3.4 nM |

target: T2, human tissue factor on cells (human, UniProt P13726 33-295); test: flow cytometry on HEK293T-humanTF cells, one-site fit of MFI
T2 construct: cell-surface TF, transfected (HEK293T-humanTF) or endogenous (tumour lines, keratinocytes); the cell line is named under assay; also called HEK293T-humanTF; TF on BxPC3, primary human keratinocytes, NCI-H292, HCC1954, NCI-H1975
Source text: as §1, §2

| Binder | Bmax (MFI) | Kd |
| --- | --- | --- |
| B1 | 244000 MFI | 1.4 nM |
| B2 | 296000 MFI | 0.9 nM |
| B3 | 302000 MFI | 1.3 nM |
| B4 | 275000 MFI | 0.8 nM |
| B5 | 253000 MFI | 1.7 nM |
| B6 | 351000 MFI | 3.3 nM |
| B7 | 318000 MFI | 2.3 nM |

target: T2, human tissue factor on cells; test: flow cytometry on BxPC3 cells (TF positive), one-site fit of MFI
Source text: as §1, §2

| Binder | Bmax (MFI) | Kd |
| --- | --- | --- |
| B8 | 45400 MFI | 4.7 nM |
| B9 | 46300 MFI | 4.1 nM |
| B10 | 52700 MFI | 26.1 nM |

target: T3, human tissue factor (human TF, Lake Pharma) (human, UniProt P13726 33-251, limits assumed); test: Biacore SPR, single-point off-rate (100 nM antigen), antibody captured on anti-Fc
T3 construct: bought recombinant antigen; also called CD142
Experimental: (§3) Anti-Fc polyclonal antibodies were immobilized onto a CM4 chip (Cytiva #BR100534) using amine coupling chemistry (Human Antibody Capture Kit, Cytiva #BR100839). The immobilization steps were carried out at a flow rate of 25 μL/min in 1×HBS-EP+buffer (Cytiva #BR100669). The sensor surfaces were activated for 7 min with a mixture of N-hydroxysuccinimide (NHS, 0.05 M) and 1-ethyl-3-(3-dimethylaminopropyl)-carbodiimide (EDC, 0.2 M). The anti-Fc polyclonal antibodies were injected over all 4 flow cells at a concentration of 25 μg/mL in 10 mM sodium acetate, pH 4.5, for 7 min. Ethanolamine (1 M, pH 8.5) was injected for 7 min to block any remaining activated groups.
(§4) Off-rate and kinetic binding experiments were performed at 25° C. using 1×HBS-EP+buffer. Antibodies were injected over the anti-Fc surface at a concentration of 3 μg/mL for 12 seconds at a flow rate of 10 μL/min on flow cells 2, 3 and 4, followed by a buffer wash for 30 seconds at the same flow rate. Single point off-rate analysis was carried out using an antigen concentration of 100 nM. […] After capturing ligand (antibody) on the anti-Fc surface, the analyte (human TF, Lake Pharma; cynomolgus TF, Sino Bio #90885-C08H; mouse TF, R&D Systems #3178-PA) was bound for 180 seconds, followed by a 420 second dissociation phase at a flow rate of […]. Between each ligand capture and analyte binding cycle, regeneration was carried out using 2 injections of 10 mM glycine pH 2.0 for 30 seconds at 30 μL/min, followed by a 30 second buffer wash step.

| Binder | koff |
| --- | --- |
| B8 | 0.00415 s⁻¹ |
| B9 | 0.00827 s⁻¹ |
| B10 | 0.00304 s⁻¹ |

Target: T4, cynomolgus tissue factor (cynomolgus TF, Sino Bio #90885-C08H) (cynomolgus monkey, UniProt P13726 33-251 (human entry))
T4 construct: bought recombinant antigen; also called cyno TF
T4 chain: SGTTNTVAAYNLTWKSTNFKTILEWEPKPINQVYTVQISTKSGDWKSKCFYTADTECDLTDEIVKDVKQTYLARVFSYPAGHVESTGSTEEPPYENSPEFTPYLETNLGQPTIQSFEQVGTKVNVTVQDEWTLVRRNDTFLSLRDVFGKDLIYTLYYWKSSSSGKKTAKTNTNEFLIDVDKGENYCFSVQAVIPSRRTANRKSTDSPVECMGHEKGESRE
Test: as above
Experimental: as §3, §4

| Binder | koff |
| --- | --- |
| B8 | 0.00169 s⁻¹ |
| B9 | 0.00166 s⁻¹ |
| B10 | 0.0337 s⁻¹ |

target: tissue factor reagent of the Tissue Factor Activity Assay Kit (Abcam #ab108906) (UniProt P13726 33-295, limits assumed); test: cell-based or functional assay

| Binder | FX conversion (% inhibition), 1000 nM antibody |
| --- | --- |
| B8 | 2.41% |
| B9 | -1.01% |
| B10 | 1.12% |

target: T3, human tissue factor (human TF, Lake …); test: Biacore SPR kinetics, antibody captured on anti-Fc, 1:1 Langmuir fit
Experimental: as §3, §4
(§5) The data were fit with the Biacore T200 Evaluation software, using a 1:1 Langmuir binding model. KD (affinity, nM) was determined as a ratio of the kinetic rate constants calculated from the fits of the association and dissociation phases.

| Binder | Kd | koff | kon |
| --- | --- | --- | --- |
| B1 | 13.8 nM | 0.000865 s⁻¹ | 62500 M⁻¹ s⁻¹ |
| B2 | 5.42 nM | 0.00196 s⁻¹ | 362000 M⁻¹ s⁻¹ |
| B3 | 7.78 nM | 0.00426 s⁻¹ | 547000 M⁻¹ s⁻¹ |
| B4 | 3.59 nM | 0.000674 s⁻¹ | 188000 M⁻¹ s⁻¹ |
| B5 | 19.1 nM | 0.00594 s⁻¹ | 311000 M⁻¹ s⁻¹ |
| B6 | 7.81 nM | 0.000422 s⁻¹ | 54000 M⁻¹ s⁻¹ |
| B7 | 17.4 nM | 0.00124 s⁻¹ | 71200 M⁻¹ s⁻¹ |

Target: T4, cynomolgus tissue factor (cynomolgus …)
Test: as above
Experimental: as §3, §4, §5

| Binder | Kd | koff | kon |
| --- | --- | --- | --- |
| B1 | 29.9 nM | 0.00241 s⁻¹ | 80800 M⁻¹ s⁻¹ |
| B2 | 18.9 nM | 0.00309 s⁻¹ | 164000 M⁻¹ s⁻¹ |
| B3 | 0.255 nM | 0.000309 s⁻¹ | 1.21e+06 M⁻¹ s⁻¹ |
| B4 | 24.2 nM | 0.00309 s⁻¹ | 128000 M⁻¹ s⁻¹ |
| B5 | 7.33 nM | 0.00231 s⁻¹ | 316000 M⁻¹ s⁻¹ |
| B6 | 20.1 nM | 0.00166 s⁻¹ | 82700 M⁻¹ s⁻¹ |
| B7 | 60.7 nM | 0.00735 s⁻¹ | 121000 M⁻¹ s⁻¹ |
